{"source": "paper PMC11191771", "key": {"[1]": {"biological_target": "PRC2.2 six-subunit complex WT (EZH2, SUZ12, EED, RBAP48, AEBP2, JARID2 119-450) (human, UniProt Q15910-2;Q15022;O75530;Q09028;Q6ZN18;Q92833 …)", "test": "EMSA; 100 mM KCl; EMSA: 50 mM Tris-HCl pH 7.5 (25 C), 100 mM KCl, 2.5 mM MgCl2, 0.1 mM ZnCl2, 2 mM 2-mercaptoethanol?; FP: 50 mM Tris pH 7.5, 10 or 25 mM KCl, 2.5 mM MgCl2, 0.1 mM ZnCl2, 0.1 mg/mL BSA?, room temperature, 5 nM RNA or DNA", "details": "protein: recombinant, tags: His-EZH2, Strep-GFP-AEBP2, Strep-GFP-JARID2, TEV protease treated, copies: 1;1;1;1;1;1, label: 5' 32P (EMSA)"}, "[2]": {"biological_target": "T1, PRC2.2 EZH2 R566Y K568Y Q575Y (3Y) (human, UniProt Q15910-2;Q15022;O75530;Q09028;Q6ZN18;Q92833 …, R566Y;K568Y;Q575Y)", "test": "EMSA; higher affinity than WT; EMSA: 50 mM Tris-HCl pH 7.5 (25 C), 100 mM KCl, 2.5 mM MgCl2, 0.1 mM ZnCl2, 2 mM 2-mercaptoethanol?; FP: 50 mM Tris pH 7.5, 10 or 25 mM KCl, 2.5 mM MgCl2, 0.1 mM ZnCl2, 0.1 mg/mL BSA?, room temperature, 5 nM RNA or DNA", "details": "protein: recombinant; tags: as P1; copies: 1;1;1;1;1;1; label: 5' 32P (EMSA); single G-quadruplex"}, "[3]": {"biological_target": "PRC2.2 EZH2 R566A K568A Q575A (human, UniProt Q15910-2;Q15022;O75530;Q09028;Q6ZN18;Q92833 …, R566A;K568A;Q575A)", "test": "EMSA; binding not affected vs WT; EMSA: 50 mM Tris-HCl pH 7.5 (25 C), 100 mM KCl, 2.5 mM MgCl2, 0.1 mM ZnCl2, 2 mM 2-mercaptoethanol?; FP: 50 mM Tris pH 7.5, 10 or 25 mM KCl, 2.5 mM MgCl2, 0.1 mM ZnCl2, 0.1 mg/mL BSA?, room temperature, 5 nM RNA or DNA", "details": "protein: recombinant; tags: as P1; copies: 1;1;1;1;1;1; label: 5' 32P (EMSA); single G-quadruplex"}, "PRC2.2 EZH2 del353-362": {"biological_target": "PRC2.2 EZH2 del353-362 (human, UniProt Q15910-2;Q15022;O75530;Q09028;Q6ZN18;Q92833 …, internal_change)", "test": "EMSA; no obvious reduction vs WT; EMSA: 50 mM Tris-HCl pH 7.5 (25 C), 100 mM KCl, 2.5 mM MgCl2, 0.1 mM ZnCl2, 2 mM 2-mercaptoethanol?; FP: 50 mM Tris pH 7.5, 10 or 25 mM KCl, 2.5 mM MgCl2, 0.1 mM ZnCl2, 0.1 mg/mL BSA?, room temperature, 5 nM RNA or DNA", "details": "protein: recombinant; tags: as P1; copies: 1;1;1;1;1;1; label: 5' 32P (EMSA); single G-quadruplex"}, "[4]": {"biological_target": "T1, PRC2.2 EZH2 R566Y K568Y Q575Y (3Y)", "test": "FP; higher affinity than WT; Kd only in figure; EMSA: 50 mM Tris-HCl pH 7.5 (25 C), 100 mM KCl, 2.5 mM MgCl2, 0.1 mM ZnCl2, 2 mM 2-mercaptoethanol?; FP: 50 mM Tris pH 7.5, 10 or 25 mM KCl, 2.5 mM MgCl2, 0.1 mM ZnCl2, 0.1 mg/mL BSA?, room temperature, 5 nM RNA or DNA", "details": "protein: recombinant; tags: as P1; copies: 1;1;1;1;1;1; label: fluorescent label; single G-quadruplex"}}, "data": [{"binder": "CAAAAACAAAAACAAAAACAAAAACAAAAAGGGAAGGGAAGGGAAGGGAA (structured_RNA)", "note": "[1G4 RNA, no biotin]", "values": [{"measurement": "Kd", "setting": "[1]; single G-quadruplex", "result": 0.12, "unit": "µM"}, {"measurement": "binding result", "setting": "[2]", "result": "binds"}, {"measurement": "binding result", "setting": "[3]", "result": "binds"}, {"measurement": "binding result", "setting": "PRC2.2 EZH2 del353-362", "result": "binds"}]}, {"binder": "CAAAAACAAAAACAAAAACAAAAACAAAAAGGGAAGGGAAGGGAAGGGAA (structured_RNA)", "note": "[1G4 RNA (FP)]", "values": [{"measurement": "binding result", "setting": "[4]", "result": "binds"}]}, {"binder": "2G4 RNA (structured_RNA) RNA: CAAAAACAAAAACAAAAACAAAAACAAAAAGGGAAGGGAAGGGAAGGGAAACAACAACAACAACAGGGAAGGGAAGGGAAGGGAA", "values": [{"measurement": "Kd", "setting": "[1]; two G-quadruplexes", "result": 0.032, "unit": "µM"}]}]}
